Measurements reported in patent US20170306033A1 (Amgen, published 2017).

T1: human PAC1 receptor (human, UniProt P41586 21-468)
T1 sequence: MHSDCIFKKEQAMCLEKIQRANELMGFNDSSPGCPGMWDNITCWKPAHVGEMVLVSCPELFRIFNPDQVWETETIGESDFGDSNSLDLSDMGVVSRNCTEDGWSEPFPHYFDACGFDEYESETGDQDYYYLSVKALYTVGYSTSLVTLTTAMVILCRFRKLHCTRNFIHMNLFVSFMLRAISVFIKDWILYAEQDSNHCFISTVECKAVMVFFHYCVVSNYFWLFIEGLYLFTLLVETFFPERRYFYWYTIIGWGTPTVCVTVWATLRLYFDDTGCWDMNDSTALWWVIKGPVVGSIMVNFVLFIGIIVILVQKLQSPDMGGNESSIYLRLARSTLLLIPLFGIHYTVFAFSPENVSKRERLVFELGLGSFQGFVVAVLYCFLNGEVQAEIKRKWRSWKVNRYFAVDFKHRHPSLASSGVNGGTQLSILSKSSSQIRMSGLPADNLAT


Legend:
human CGRP receptor = human CGRP receptor (human, UniProt Q16602 23-461; O60894 27-148); assay: cell-based or functional assay
human PAC1 receptor = target: T1, human PAC1 receptor; assay: cell-based or functional assay

human CGRP receptor, sequence (Q16602 23-461 limits assumed, chain 1 of 2): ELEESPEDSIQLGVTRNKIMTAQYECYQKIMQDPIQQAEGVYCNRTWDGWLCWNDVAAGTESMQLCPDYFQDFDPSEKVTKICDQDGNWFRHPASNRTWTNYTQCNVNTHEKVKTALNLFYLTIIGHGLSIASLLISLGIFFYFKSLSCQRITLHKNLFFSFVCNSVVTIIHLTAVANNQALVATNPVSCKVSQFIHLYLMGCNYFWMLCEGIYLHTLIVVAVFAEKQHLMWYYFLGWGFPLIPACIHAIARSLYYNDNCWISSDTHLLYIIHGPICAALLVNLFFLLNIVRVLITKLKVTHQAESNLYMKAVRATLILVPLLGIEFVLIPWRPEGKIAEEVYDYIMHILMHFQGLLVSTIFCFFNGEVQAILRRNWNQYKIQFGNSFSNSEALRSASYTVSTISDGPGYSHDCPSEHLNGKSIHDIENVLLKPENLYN
human CGRP receptor, sequence (O60894 27-148 limits assumed, chain 2 of 2): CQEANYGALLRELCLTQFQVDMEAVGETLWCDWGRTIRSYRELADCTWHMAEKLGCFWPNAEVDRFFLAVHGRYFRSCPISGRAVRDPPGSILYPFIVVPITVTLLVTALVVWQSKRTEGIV

Binder | % inhibition of human CGRPR (human CGRP receptor) [%] | % inhibition of human PAC1 (human PAC1 receptor) [%]
iPS:327278 (bispecific antibody, human IgG1, kappa, lambda, N297G) light 1: DIQLTQSPSFLSASVGDRVTITCRASQSIGRSLHWYQQKPGKAPKLLIKYASQSLSGVPSRFSGSGSGTEFTLTISSLQPEDFATYYCHQSSRLPFTFGPGTKVDIKRTVAAPSVFIFPPSDEQLKSGTASVVCLLNNFYPREAKVQWKVDNALQSGNSQESVTEQDSKDSTYSLESTLTLSKADYEKHKVYACEVTHQGLSSPVTKSFNRGEC heavy 1: not shown light 2: not shown heavy 2: not shown | 85 | 47
iPS:327284 (bispecific antibody, human IgG1, kappa, lambda, N297G) light 1: DIQMTQSPSSLSASVGDRITITCRASQSISRYLNWYQQKPGKAPKLLIYAASSLQSGIPSRFSGSGSGTDFTLTINSLQPEDFATYFCQQSYSPPFTFGEGTKVDIKRTVAAPSVFIFPPSDEQLKSGTASVVCLLNNFYPREAKVQWKVDNALQSGNSQESVTEQDSKDSTYSLESTLTLSKADYEKHKVYACEVTHQGLSSPVTKSFNRGEC heavy 1: not shown light 2: QSVLTQPPSVSAAPGQKVTISCSGSSSNIGNNYVSWYQQLPGTAPKLLIYDNNKRPSGIPDRFSGSKSGTSTTLGITGLQTGDEADYYCGTWDSRLSAVVFGKGTKLTVLGQPKANPTVTLFPPSSEELQANKATLVCLISDFYPGAVTVAWKADGSPVKAGVETTKPSKQSNNKYAAKSYLSLTPEQWKSHRSYSCQVTHEGSTVEKTVAPTECS heavy 2: QVQLVESGGGVVQPGRSLRLSCAASGFTFSSFGMHWVRQAPGKELEWVAVISFDGSIKYSVDSVKGRFTISRDNSKNTLFLQMNSLRAEDTAVYYCARDRLNYYDSSGYYHYKYYGMAVWGQGTTVTVSSASTKGPSVFPLAPSSKSTSGGTAALGCLVKDYFPEPVTVSWNSGALTSGVHTFPAVLQSSGLYSLESVVTVPSSSLGTQTYICNVNHKPSNTKVDKKVEPKSCDKTHTCPPCPAPELLGGPSVFLFPPKPKDTLMISRTPEVTCVVVDVSHEDPEVKFNWYVDGVEVHNAKTKPCEEQYGSTYRCVSVLTVLHQDWLNGKEYKCKVSNKALPAPIEKTISKAKGQPREPQVYTLPPSRKEMTKNQVSLTCLVKGFYPSDIAVEWESNGQPENNYKTTPPVLKSDGSFFLYSKLTVDKSRWQQGNVFSCSVMHEALHNHYTQKSLSLSPGK | 77 | 25
iPS:327279 (bispecific antibody, human IgG1, kappa, lambda, N297G) light 1: EIVLTQSPATLSLSPGERATLSCRASQSVGRSLHWYQQKPGQAPRLLIKYASQSLSGIPARFSGSGSGTDFTLTISSLEPEDFAVYYCHQSSRLPFTFGPGTKVDIKRTVAAPSVFIFPPSDEQLKSGTASVVCLLNNFYPREAKVQWKVDNALQSGNSQESVTEQDSKDSTYSLESTLTLSKADYEKHKVYACEVTHQGLSSPVTKSFNRGEC heavy 1: not shown light 2: not shown heavy 2: not shown | 73 | 95
iPS:328000 (bispecific antibody, human IgG2, kappa, lambda) light 1: not shown heavy 1: QVQLQESGPGLVKPSQTLSLTCTVSGGSISSGGYYWSWIRQHPGKGLEWIGYIYYSGNTYYNPSLKSRVTISGDTSKNQFSLKLRSVTAADTAVYYCTRGGAARGMDVWGQGTTVTVSSASTKGPSVFPLAPCSRSTSESTAALGCLVKDYFPEPVTVSWNSGALTSGVHTFPAVLQSSGLYSLKSVVTVPSSNFGTQTYTCNVDHKPSNTKVDKTVERKCCVECPPCPAPPVAGPSVFLFPPKPKDTLMISRTPEVTCVVVDVSHEDPEVQFNWYVDGVEVHNAKTKPREEQFNSTFRVVSVLTVVHQDWLNGKEYKCKVSNKGLPAPIEKTISKTKGQPREPQVYTLPPSREEMTKNQVSLTCLVDGFYPSDIAVEWESNGQPENNYDTTPPMLDSDGSFFLYSDLTVDKSRWQQGNVFSCSVMHEALHNHYTQKSLSLSPGK light 2: QSVLTQPPSVSAAPGQKVTISCSGSSSNIGNNYVSWYQQLPGTAPKLLIYDNNKRPSGIPDRFSGSKSGTSTTLGITGLQTGDEADYYCGTWDSRLSAVVFGGGTKLTVLGQPKANPTVTLFPPSSEELQANKATLVCLISDFYPGAVTVAWKADGSPVKAGVETTKPSKQSNNKYAAKSYLSLTPEQWKSHRSYSCQVTHEGSTVEKTVAPTECS heavy 2: QVQLVESGGGVVQPGRSLRLSCAASGFTFSSFGMHWVRQAPGKGLEWVAVISFDGSIKYSVDSVKGRFTISRDNSKNTLFLQMNSLRAEDTAVYYCARDRLNYYDSSGYYHYKYYGMAVWGQGTTVTVSSASTKGPSVFPLAPCSRSTSESTAALGCLVKDYFPEPVTVSWNSGALTSGVHTFPAVLQSSGLYSLESVVTVPSSNFGTQTYTCNVDHKPSNTKVDKTVERKCCVECPPCPAPPVAGPSVFLFPPKPKDTLMISRTPEVTCVVVDVSHEDPEVQFNWYVDGVEVHNAKTKPREEQFNSTFRVVSVLTVVHQDWLNGKEYKCKVSNKGLPAPIEKTISKTKGQPREPQVYTLPPSRKKMTKNQVSLTCLVKGFYPSDIAVEWESNGQPENNYKTTPPMLKSDGSFFLYSKLTVDKSRWQQGNVFSCSVMHEALHNHYTQKSLSLSPGK | 75 | 63

Other lines, results leading:

% inhibition of human CGRPR (human CGRP receptor) [%] | % inhibition of human PAC1 (human PAC1 receptor) [%] | Binder
84 | 61 | iPS:326628 (bispecific antibody, human IgG2, kappa, lambda) light 1: DIQLTQSPSFLSASVGDRVTITCRASQSIGRSLHWYQQKPGKAPKLLIKYASQSLSGVPSRFSGSGSGTEFTLTISSLQPEDFATYYCHQSSRLPFTFGPGTKVDIKRTVAAPSVFIFPPSDEQLKSGTASVVCLLNNFYPREAKVQWKVDNALQSGNSQESVTEQDSKDSTYSLESTLTLSKADYEKHKVYACEVTHQGLSSPVTKSFNRGEC heavy 1: QVQLVESGAEVVKPGASVKVSCKASGFTFSRFAMHWVRQAPGQGLEWMGVISYDGGNKYYAESVKGRVTMTRDTSTSTLYMELSSLRSEDTAVYYCARGYDVLTGYPDYWGQGTLVTVSSASTKGPSVFPLAPCSRSTSESTAALGCLVKDYFPEPVTVSWNSGALTSGVHTFPAVLQSSGLYSLKSVVTVPSSNFGTQTYTCNVDHKPSNTKVDKTVERKCCVECPPCPAPPVAGPSVFLFPPKPKDTLMISRTPEVTCVVVDVSHEDPEVQFNWYVDGVEVHNAKTKPREEQFNSTFRVVSVLTVVHQDWLNGKEYKCKVSNKGLPAPIEKTISKTKGQPREPQVYTLPPSREEMTKNQVSLTCLVDGFYPSDIAVEWESNGQPENNYDTTPPMLDSDGSFFLYSDLTVDKSRWQQGNVFSCSVMHEALHNHYTQKSLSLSPGK light 2: not shown heavy 2: not shown
87 | 58 | iPS:327282 (bispecific antibody, human IgG1, kappa, lambda, N297G) light 1: DIQLTQSPSFLSASVGDRVTITCRASQSIGRSLHWYQQKPGKAPKLLIKYASQSLSGVPSRFSGSGSGTEFTLTISSLQPEDFATYYCHQSSRLPFTFGPGTKVDIKRTVAAPSVFIFPPSDEQLKSGTASVVCLLNNFYPREAKVQWKVDNALQSGNSQESVTEQDSKDSTYSLESTLTLSKADYEKHKVYACEVTHQGLSSPVTKSFNRGEC heavy 1: not shown light 2: QSVLTQPPSVSAAPGQKVTISCSGSSSNIGNNYVSWYQQLPGTAPKLLIYDNNKRPSGIPDRFSGSKSGTSTTLGITGLQTGDEADYYCGTWDSRLSAVVFGGGTKLTVLGQPKANPTVTLFPPSSEELQANKATLVCLISDFYPGAVTVAWKADGSPVKAGVETTKPSKQSNNKYAAKSYLSLTPEQWKSHRSYSCQVTHEGSTVEKTVAPTECS heavy 2: QVQLVESGGGVVQPGRSLRLSCAASGFTFSSFGMHWVRQAPGKGLEWVAVISFDGSIKYSVDSVKGRFTISRDNSKNTLFLQMNSLRAEDTAVYYCARDRLNYYDSSGYYHYKYYGMAVWGQGTTVTVSSASTKGPSVFPLAPSSKSTSGGTAALGCLVKDYFPEPVTVSWNSGALTSGVHTFPAVLQSSGLYSLESVVTVPSSSLGTQTYICNVNHKPSNTKVDKKVEPKSCDKTHTCPPCPAPELLGGPSVFLFPPKPKDTLMISRTPEVTCVVVDVSHEDPEVKFNWYVDGVEVHNAKTKPCEEQYGSTYRCVSVLTVLHQDWLNGKEYKCKVSNKALPAPIEKTISKAKGQPREPQVYTLPPSRKEMTKNQVSLTCLVKGFYPSDIAVEWESNGQPENNYKTTPPVLKSDGSFFLYSKLTVDKSRWQQGNVFSCSVMHEALHNHYTQKSLSLSPGK
66 | 48 | iPS:326417 (bispecific antibody, human IgG1, kappa, N297G) light 1: not shown heavy 1: not shown light 2: EIVLTQSPGTLSLSPGERATLSCRASQSVSSGYLTWYQQKPGQAPRLLIYGASSRATGIPDRFSGSGSGTDFTLTISRLEPEDFAVYYCQQYGNSLSRFGQGTKLEIKRTVAAPSVFIFPPSDEQLKSGTASVVCLLNNFYPREAKVQWKVDNALQSGNSQESVTEQDSKDSTYSLKSTLTLSKADYEKHKVYACEVTHQGLSSPVTKSFNRGEC heavy 2: not shown
85 | 99 | iPS:327283 (bispecific antibody, human IgG1, kappa, lambda, N297G) light 1: EIVLTQSPATLSLSPGERATLSCRASQSVGRSLHWYQQKPGQAPRLLIKYASQSLSGIPARFSGSGSGTDFTLTISSLEPEDFAVYYCHQSSRLPFTFGPGTKVDIKRTVAAPSVFIFPPSDEQLKSGTASVVCLLNNFYPREAKVQWKVDNALQSGNSQESVTEQDSKDSTYSLESTLTLSKADYEKHKVYACEVTHQGLSSPVTKSFNRGEC heavy 1: not shown light 2: QSVLTQPPSVSAAPGQKVTISCSGSSSNIGNNYVSWYQQLPGTAPKLLIYDNNKRPSGIPDRFSGSKSGTSTTLGITGLQTGDEADYYCGTWDSRLSAVVFGGGTKLTVLGQPKANPTVTLFPPSSEELQANKATLVCLISDFYPGAVTVAWKADGSPVKAGVETTKPSKQSNNKYAAKSYLSLTPEQWKSHRSYSCQVTHEGSTVEKTVAPTECS heavy 2: QVQLVESGGGVVQPGRSLRLSCAASGFTFSSFGMHWVRQAPGKGLEWVAVISFDGSIKYSVDSVKGRFTISRDNSKNTLFLQMNSLRAEDTAVYYCARDRLNYYDSSGYYHYKYYGMAVWGQGTTVTVSSASTKGPSVFPLAPSSKSTSGGTAALGCLVKDYFPEPVTVSWNSGALTSGVHTFPAVLQSSGLYSLESVVTVPSSSLGTQTYICNVNHKPSNTKVDKKVEPKSCDKTHTCPPCPAPELLGGPSVFLFPPKPKDTLMISRTPEVTCVVVDVSHEDPEVKFNWYVDGVEVHNAKTKPCEEQYGSTYRCVSVLTVLHQDWLNGKEYKCKVSNKALPAPIEKTISKAKGQPREPQVYTLPPSRKEMTKNQVSLTCLVKGFYPSDIAVEWESNGQPENNYKTTPPVLKSDGSFFLYSKLTVDKSRWQQGNVFSCSVMHEALHNHYTQKSLSLSPGK
